Source: article PMC4686857

Target: β2 subunit of human LFA-1 expressed in BAF/LFA-1 cells (human) (UniProt P05107)
Assay: co-IP; lysates of BAF/LFA-1 cells transfected with vector or Spa-1, ±CXCL12 for 1 min, immunoprecipitated with anti-β2, immunoblotted with anti-FLNa

UniProt P05107, sequence (P05107 23-769): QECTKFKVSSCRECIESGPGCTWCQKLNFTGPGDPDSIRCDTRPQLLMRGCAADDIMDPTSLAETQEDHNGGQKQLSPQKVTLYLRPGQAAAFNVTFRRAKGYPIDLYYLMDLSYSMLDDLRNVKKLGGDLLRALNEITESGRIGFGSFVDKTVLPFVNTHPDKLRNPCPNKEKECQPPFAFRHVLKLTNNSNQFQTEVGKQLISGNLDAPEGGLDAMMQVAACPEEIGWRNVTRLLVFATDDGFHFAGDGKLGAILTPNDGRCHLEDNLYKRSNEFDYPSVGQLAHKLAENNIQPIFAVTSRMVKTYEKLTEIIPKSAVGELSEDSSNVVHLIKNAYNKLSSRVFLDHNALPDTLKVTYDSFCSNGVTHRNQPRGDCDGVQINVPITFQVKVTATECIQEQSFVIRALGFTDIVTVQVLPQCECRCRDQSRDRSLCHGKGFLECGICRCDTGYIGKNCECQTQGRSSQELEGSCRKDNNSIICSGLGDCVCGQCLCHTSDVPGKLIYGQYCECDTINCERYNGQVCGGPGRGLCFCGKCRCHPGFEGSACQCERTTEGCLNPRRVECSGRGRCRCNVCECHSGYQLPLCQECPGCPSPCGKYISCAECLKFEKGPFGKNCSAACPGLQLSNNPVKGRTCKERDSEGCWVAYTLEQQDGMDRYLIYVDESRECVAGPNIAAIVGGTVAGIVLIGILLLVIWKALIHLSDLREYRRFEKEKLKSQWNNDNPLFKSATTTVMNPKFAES

- FLNa co-precipitated with β2 after CXCL12 stimulation, Spa-1-expressing cells, percent: 64.7%
- FLNa co-precipitated with β2 after CXCL12 stimulation, control cells, percent: 25.2%
Substance: endogenous FLNa of BAF/LFA-1 cells, Q8BTM8 1-2647
